According to article PMC11353897, “Biochemical and structural elucidation of the L-carnitine degradation pathway of the human pathogen Acinetobacter baumannii” (Frontiers in Microbiology, 2024):

Tests used:
[1] = molecular target: T1, carnitine monooxygenase oxygenase component CntA (Acinetobacter baumannii, UniProt D0C9N6); test: MBTH aldehyde formation assay and L-carnitine depletion assay (specific activity); type: biochemical
T1 construct: CntA after on-column cleavage of GST tag; with CntB (reductase)

[2] = molecular target: T2, malic semialdehyde dehydrogenase (MSA-DH) (Acinetobacter baumannii, UniProt D0C9N7); test: MSA depletion (MBTH) and NADH formation assays with […] NAD+; type: biochemical
T2 construct: gene HMPREF0010_01350; N-terminal His-thioredoxin fusion, tetramer
T2 sequence (D0C9N7 1-483): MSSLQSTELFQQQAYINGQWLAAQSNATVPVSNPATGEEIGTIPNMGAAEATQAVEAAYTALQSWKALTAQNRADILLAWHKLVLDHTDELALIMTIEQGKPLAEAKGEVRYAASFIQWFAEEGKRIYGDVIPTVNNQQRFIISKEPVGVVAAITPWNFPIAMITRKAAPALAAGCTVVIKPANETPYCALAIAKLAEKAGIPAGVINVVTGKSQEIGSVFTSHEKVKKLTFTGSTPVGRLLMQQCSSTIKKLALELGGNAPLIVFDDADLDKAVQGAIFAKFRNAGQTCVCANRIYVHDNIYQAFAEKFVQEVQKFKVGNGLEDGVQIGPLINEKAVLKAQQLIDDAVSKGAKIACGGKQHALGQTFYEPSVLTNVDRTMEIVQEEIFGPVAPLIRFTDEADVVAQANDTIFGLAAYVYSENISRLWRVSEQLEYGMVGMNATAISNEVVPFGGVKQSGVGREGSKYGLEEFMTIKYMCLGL

[3] = molecular target: T3, D-malate dehydrogenase (MDH) (Acinetobacter baumannii, UniProt A0ABX6CCN1); test: spectroscopic NADH formation assay ([…] nm) with D-malate, varied inhibitor concentrations; type: biochemical
T3 construct: gene dmlA; N-terminal His-tag fusion, tetramer
T3 sequence (A0ABX6CCN1 1-370): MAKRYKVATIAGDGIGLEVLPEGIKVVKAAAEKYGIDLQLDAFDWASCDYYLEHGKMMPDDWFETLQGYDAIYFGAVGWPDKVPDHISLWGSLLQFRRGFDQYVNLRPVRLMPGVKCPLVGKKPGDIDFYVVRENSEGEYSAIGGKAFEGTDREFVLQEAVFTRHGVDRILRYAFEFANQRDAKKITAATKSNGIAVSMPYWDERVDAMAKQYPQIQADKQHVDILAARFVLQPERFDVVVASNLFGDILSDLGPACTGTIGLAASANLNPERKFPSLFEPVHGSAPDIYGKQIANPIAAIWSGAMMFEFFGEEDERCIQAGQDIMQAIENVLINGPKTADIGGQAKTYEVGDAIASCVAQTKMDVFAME

[4] = molecular target: T1, carnitine monooxygenase oxygenase component CntA; test: MBTH aldehyde formation assay (specific activity); type: biochemical
[5] = molecular target: D-malate dehydrogenase (MDH) from A. baumannii, N-terminal His-tag fusion (Acinetobacter baumannii ATCC 19606); test: mass photometry; Refeyn TwoMP, 25 nM protein in PBS, 60 s movies, calibrated against NativeMark standard
[6] = molecular target: malic semialdehyde dehydrogenase (MSA-DH) from A. baumannii, N-terminal His-thioredoxin fusion (Acinetobacter baumannii ATCC 19606); test: crystal structure; X-ray, 2.6 A, space group P212121, 12 chains (three tetramers) in the asymmetric unit; protein at 40 mg/mL supplemented with 7 mM D-malate
[7] = molecular target: malic semialdehyde dehydrogenase (MSA-DH) from A. baumannii, N-terminal His-thioredoxin fusion (Acinetobacter baumannii ATCC 19606); test: mass photometry; Refeyn TwoMP, 25 nM protein in PBS, 60 s movies, calibrated against NativeMark standard
[8] = molecular target: malic semialdehyde dehydrogenase (MSA-DH) from A. baumannii, N-terminal His-thioredoxin fusion (Acinetobacter baumannii ATCC 19606); test: SEC; analytical size exclusion chromatography, Superdex 200 increase 5/150 GL, 20 mM HEPES-NaOH pH 7.5, 150 mM NaCl, 0.45 mL/min, 50 uL of 3 mg/mL protein injected, calibrated with protein standards
purified protein [9] = substrate: O=C[C@H](O)CC(=O)O; test: purified protein; type: biochemical, Acinetobacter baumannii; details: NAD+ or NADP+ proposed from model: Arg166, Arg284, Ser447 bind the carboxylate; catalytic Cys290 (covalent hemithioacetal intermediate) and Glu256
purified protein [10] = substrate: O=C(O)C[C@@H](O)C(=O)O; test: purified protein; type: biochemical, Acinetobacter baumannii; details: NAD+; Mg2+ or Mn2+

`C[N+](C)(C)C[C@H](O)CC(=O)[O-]` [L-carnitine] was tested, and the “MBTH aldehyde formation assay and L-carnitine depletion assay (specific activity)” value [1] was 2.8 ± 0.2 µmol/min/mg.

In the case of `NC(=O)c1ccc[n+]([C@@H]2O[C@H](COP(=O)([O-])OP(=O)(O)OC[C@H]3O[C@@H](n4cnc5c(N)ncnc54)[C@H](O)[C@@H]3O)[C@@H](O)[C@H]2O)c1` [NAD^+], the “MSA depletion (MBTH) and NADH formation assays with 2 mM NAD+” value [2] is reported as “MSA-DH can use NAD^+ or NADP^+ as a cofactor for the oxidation of the MSA substrate”.

`O=C(O)C(O)C(O)C(=O)O` (stereo not drawn) [meso-tartrate] was tested, and the Ki [3] was 320 ± 80 µM.

In the case of `C[N+](C)(C)CCCC(=O)[O-]` [γ-butyrobetaine], the “MBTH aldehyde formation assay (specific activity)” value [4] is reported as 2.1 ± 0.2 µmol/min/mg.

Molecule “D-malate dehydrogenase (MDH) from A. baumannii, N-terminal His-tag fusion (enzyme)” has a stoichiometry N [5] of 4.

Molecule “malic semialdehyde dehydrogenase (MSA-DH) from A. baumannii, N-terminal His-thioredoxin fusion (enzyme)” has a stoichiometry N [6] of 4, a stoichiometry N [7] of 4 and a stoichiometry N [8] of 4.

B1: malic semialdehyde dehydrogenase (MSA-DH) (Acinetobacter baumannii ATCC 19606 = CIP 70.34 = JCM 6841) (protein)
chain: MSSLQSTELFQQQAYINGQWLAAQSNATVPVSNPATGEEIGTIPNMGAAEATQAVEAAYTALQSWKALTAQNRADILLAWHKLVLDHTDELALIMTIEQGKPLAEAKGEVRYAASFIQWFAEEGKRIYGDVIPTVNNQQRFIISKEPVGVVAAITPWNFPIAMITRKAAPALAAGCTVVIKPANETPYCALAIAKLAEKAGIPAGVINVVTGKSQEIGSVFTSHEKVKKLTFTGSTPVGRLLMQQCSSTIKKLALELGGNAPLIVFDDADLDKAVQGAIFAKFRNAGQTCVCANRIYVHDNIYQAFAEKFVQEVQKFKVGNGLEDGVQIGPLINEKAVLKAQQLIDDAVSKGAKIACGGKQHALGQTFYEPSVLTNVDRTMEIVQEEIFGPVAPLIRFTDEADVVAQANDTIFGLAAYVYSENISRLWRVSEQLEYGMVGMNATAISNEVVPFGGVKQSGVGREGSKYGLEEFMTIKYMCLGL
notes: N-terminal His-thioredoxin fusion, tetramer
In the case of B1, the Km (purified protein [9]) is reported as 2600 ± 140 µM.

B2: D-malate dehydrogenase (MDH) (Acinetobacter baumannii ATCC 19606 = CIP 70.34 = JCM 6841) (protein)
chain: MAKRYKVATIAGDGIGLEVLPEGIKVVKAAAEKYGIDLQLDAFDWASCDYYLEHGKMMPDDWFETLQGYDAIYFGAVGWPDKVPDHISLWGSLLQFRRGFDQYVNLRPVRLMPGVKCPLVGKKPGDIDFYVVRENSEGEYSAIGGKAFEGTDREFVLQEAVFTRHGVDRILRYAFEFANQRDAKKITAATKSNGIAVSMPYWDERVDAMAKQYPQIQADKQHVDILAARFVLQPERFDVVVASNLFGDILSDLGPACTGTIGLAASANLNPERKFPSLFEPVHGSAPDIYGKQIANPIAAIWSGAMMFEFFGEEDERCIQAGQDIMQAIENVLINGPKTADIGGQAKTYEVGDAIASCVAQTKMDVFAME
notes: N-terminal His-tag fusion, tetramer
In the case of B2, the Km (purified protein [10]) is reported as 2100 ± 200 µM.
